Assay: soluble on expression in E. coli; label from the status in PepcDB or PDB records

**Q.** For “GHWNQPWKCLVDHDGVFDNRMMGYATEELWFSEWENGGTPWENPAGYEQFNPVLHVDKWRVPMLVIHGQKDFRIPVEQGLAAFGALQRKGIESKLLYFHDENHWVLNPQNSIQWHDTVNAWLKKYIG”, which “soluble on expression in E. coli” value is on record?
**A.** not soluble

**Q.** With “GIDIELQMLGERLLEGKIGSIVAIEPSTGEILCMVSAPTFDPRLMVGRQRGKNHLELARDSWKPLLNRSIMGQFPPGSTFKTTQALTFLQEGIITPQTAYSCYHGFVYAGLRVGCHSHGSPLPLVPAIATSCNGYFCWGLFHMIGAKKKYGSVQTAMNTWRDYMVSMGFGYPLGVDLPGEKRGMIPNAAYYDKNYRGSWNGLTIISISIGQGEVTATPLQIANLGATIANRGYYITPHVVKEVEDEPLDTLYTTKRYTKVSREHYQTVVEGMRSAVLGGTCRNANIPGIEVCGKTGTAQNRGKDHSAFMGFAPMNDPKIAVVVYVENGGWGATYGVPIGALIMEKYLKGELSPESEAKAAEIQNRRIDYGIHER” as the sequence, how does the “soluble on expression in E. coli” value read?
**A.** not soluble

**Q.** Which “soluble on expression in E. coli” value does the source give for “GIDPFTFENATSDAINQDMMLYIERIAKIIQKLPKRVHINVRGFTDDTPLVKTRFKSHYELAANRAYRVMKVLIQYGVNPNQLSFSSYGSTNPIAPNDSLENRMKNNRVEIFFSTDANDLSKIHSILDNEFNPHKQQE” here?
**A.** soluble

**Q.** With “GIEIVNRKAVWYLTSEIKETETGIEVSAGELHKGDEEVFPVEEVSFDLTPDDTYPVEYMLYLHMNVQTKKVSWSLCKAYLDGEGYCDYQGNERLIMYPVSVTVFPNGTREGTIFLYEKEDREPDRKPPVIVEPQPVGEIGTPDIDE” as the sequence, how does the “soluble on expression in E. coli” value read?
**A.** soluble

**Q.** Which “soluble on expression in E. coli” value does the source give for “GILDPEERYEHQLRQLNDMGFFDFDRNVAALRRSGGSVQGALDSLLNGDV” here?
**A.** soluble

**Q.** Which “soluble on expression in E. coli” value does the source give for “GLECDGKVNICCKKQFFVSFKDIGWNDWIIAPSGYHANYCEGECPSHIAGTSGSSLSFHSTVINHYRMRGHSPFANLKSCCVPTKLRPMSMLYYDDGQNIIKKDIQNMIVEECGCS” here?
**A.** soluble

**Q.** With “GLEIHVQIDTKSKLFCNCSTNYLDAEPNTNVCPVCLGLPGAKPLPPNKKAVEVAIMVAKMLGCKIVVDEDIYFQRKHYDYPDLPSGYQRTSTPIGVDGEFMGIGIHEVHLEEDPGQYNPSFGIVDYNRSGTPLIEIVTKPDIKSPEEAREFLKQLMTLFRYLGCLRGEGTMRADVNISIEYMGVQGNRVEVKNVNSIKGVYKVLKYELIRQKNIIKR” as the sequence, how does the “soluble on expression in E. coli” value read?
**A.** not soluble

**Q.** Which “soluble on expression in E. coli” value does the source give for “GMDTNGVLYAANMTNALAKEIPESKWDIQLIPELGTLRKLFIHIVRVRDVYRDGLKTGSIKFPGRLASDEHRLLDELERSMEELVFEFKQTTFNSIKMGENYLSIMELLGTVIQHEGIHQGQYYVALKQSGINLPKQWVQDWHM” here?
**A.** soluble

**Q.** With “GMEGLVMNTRRALFADWRVREAMLLAFDFDLINRTLTGGAEPRIASYFSNSALGMEAGAPATGRERALLEPFAADLLPGTLDGYALPATHGASNRGNLRKAARLLSEAGWRIEDGMLEGPGGTPFAFEILLPQGADAMIAASIIYRQALTRLGISARITTVDPAQFKQRVDNQDFDMTSFLRSLTLSPGNEQLLYWSAEDKDLPGSRNLMGMESPAAEAVIRHMLATDDAEEFQASVRALDRVLTAGRYVIPMWYSR” as the sequence, how does the “soluble on expression in E. coli” value read?
**A.** not soluble

**Q.** Which “soluble on expression in E. coli” value does the source give for “GMELKDIMHILEDMKVGVFATLDEYGNPHARHAHITAANEEGIFFMTSPETHFYDQLMGDQRVAMTAISEEGYLIQVVRVEGTARPVENDYLKTVFADNPYYQHIYKDESSDTMQVFQIYAGHGFYHSLTQGHKYIFSIGQGEHSEVRAL” here?
**A.** soluble

**Q.** For “GMELTALDKLEIMELAARFEMSLDKEDVENYLATFASDGALQGFWGIAKGKEELRQGFYAMLDTFARGKRHCSSNAIIQGNYDEATMESYLTVVNREDLNRAGSAFVKDQVRKINGKWYLILRQIEVDPSLPLLQQSQQAGANA”, which “soluble on expression in E. coli” value is on record?
**A.** soluble

**Q.** For “GMIQVPASFDIQGHRGCRGLLPENTIAAFTKALLLGVTTLEFDLVISKDNRVVVSHDTFFHHEITMMVDGEDVTEANEKNFNLYAMNYADIKEIDVGMKTHPRFKSQKKVPAVKPLFRELIETAEKLSAKIQYNGEIKSTVEGDNIDHPNIALFCDLVVAEIKKAHITDRFTLQSFDVRALEYMHSQYPDIKLSYLVETKGTLKKQLEKLSFTPAVYSPDVTLVSKKDIDAAHKLGMRVIPWTVNTKEEIETLISLGVDGIITDYPDLFFEK”, which “soluble on expression in E. coli” value is on record?
**A.** soluble

**Q.** Which “soluble on expression in E. coli” value does the source give for “GMIRLLYLLVKPAGMSDETFRAECLRHYEMSHDVPGLHKYEVRLVAEQPTDTHVPFFDIGHVDAIGECWFKDDAAYATYMASDIRKAWFEHGKTFIGQLKPFRTAPVAGDEPAS” here?
**A.** soluble
